Results published in paper PMC4794675 (Journal of Virology, 2016).

Legend:
[1] = target: T1, Soluble E2 (sE2), amino acids 384 to 661 of HCV genotype 1a strain H77 (Hepatitis C virus genotype 1a, H77, UniProt P27958); assay: SPR; Biacore 3000, sE2 immobilised on CM5 by amine coupling; MAbs or Fabs injected; HBS pH 7.2, 25°C, 20 μl/min; 1:1 Langmuir fit; conditions: both partners purified
T1 construct: source: High Five insect cells, recombinant baculovirus, secreted, purified (Ni-nitrilotriacetic acid chromatography)

[2] = target: T2, BSA2 (glutaraldehyde-self-conjugated BSA) (Bos taurus, UniProt P02769); assay: ELISA; conditions: both partners purified
T2 construct: bovine serum albumin; also called BSA2 control; source: BSA self-conjugated with 0.2% glutaraldehyde, dialysed

[3] = target: T3, full-length (FL) E2 protein (Hepatitis C virus; strain of this …); assay: ELISA; conditions: one partner purified
T3 construct: source: HEK293T, transfected, in clarified lysate

[4] = target: T4, sE2 expressed in mammalian cells (HEK293T lysate) (Hepatitis C virus; strain of this …); assay: ELISA; conditions: one partner purified
T4 construct: also called mammalian cell-expressed sE2; source: HEK293T, transfected, in clarified lysate

[5] = target: T5, E1E2 heterodimer (E1E2 glycoprotein) (Hepatitis C virus; strain of this …); assay: ELISA; conditions: one partner purified
T5 construct: source: HEK293T, transfected, in clarified lysate

T1 sequence (P27958 384-661): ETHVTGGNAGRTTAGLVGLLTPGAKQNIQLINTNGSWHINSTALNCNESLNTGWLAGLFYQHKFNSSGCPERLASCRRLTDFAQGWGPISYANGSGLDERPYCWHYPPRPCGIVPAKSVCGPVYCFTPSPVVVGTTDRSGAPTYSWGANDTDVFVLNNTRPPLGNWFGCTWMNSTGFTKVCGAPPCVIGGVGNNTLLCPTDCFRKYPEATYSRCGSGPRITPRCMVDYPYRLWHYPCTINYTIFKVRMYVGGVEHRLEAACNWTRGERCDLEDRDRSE
T2 sequence (P02769 25-607): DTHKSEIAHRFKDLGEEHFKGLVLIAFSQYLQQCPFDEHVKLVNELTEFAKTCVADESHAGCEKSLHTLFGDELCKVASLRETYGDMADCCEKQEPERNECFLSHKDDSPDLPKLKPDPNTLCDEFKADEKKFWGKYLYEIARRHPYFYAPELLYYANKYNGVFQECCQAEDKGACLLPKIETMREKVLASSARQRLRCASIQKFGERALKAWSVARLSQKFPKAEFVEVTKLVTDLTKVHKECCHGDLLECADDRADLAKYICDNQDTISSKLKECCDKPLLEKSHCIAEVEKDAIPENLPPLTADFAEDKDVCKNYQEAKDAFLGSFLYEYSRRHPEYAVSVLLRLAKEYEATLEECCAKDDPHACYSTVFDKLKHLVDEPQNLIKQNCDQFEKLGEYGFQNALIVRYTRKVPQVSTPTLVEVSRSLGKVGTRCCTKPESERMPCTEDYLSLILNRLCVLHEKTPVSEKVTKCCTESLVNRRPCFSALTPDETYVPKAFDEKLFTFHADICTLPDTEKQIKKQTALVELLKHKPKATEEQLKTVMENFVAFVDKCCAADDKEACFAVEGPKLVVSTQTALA
T3 sequence (P27958 384-746): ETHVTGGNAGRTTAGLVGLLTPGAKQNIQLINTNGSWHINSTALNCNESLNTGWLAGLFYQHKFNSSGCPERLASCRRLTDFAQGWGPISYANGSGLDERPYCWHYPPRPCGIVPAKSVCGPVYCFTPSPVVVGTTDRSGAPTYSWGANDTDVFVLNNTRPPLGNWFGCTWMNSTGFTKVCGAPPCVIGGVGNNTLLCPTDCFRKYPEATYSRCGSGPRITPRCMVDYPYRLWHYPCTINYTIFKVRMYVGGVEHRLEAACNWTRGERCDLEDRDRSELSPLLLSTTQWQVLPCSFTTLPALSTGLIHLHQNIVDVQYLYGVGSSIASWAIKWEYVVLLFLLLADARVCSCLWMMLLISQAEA

B1: MAb C2 (mouse monoclonal antibody against C-epitope I) (antibody, V domains shown)
VH: EVQLQQPGAELVRPGGSVKLSCKASGYSFTTYWMNWVKQRPGQGLEWIGMIQPSDSETRLNQKFKDKATLTLDRSSSTVYMQLSSPTSDDSAVYYCARTGRGDAWLTYWGQGTSVTVSS
VL: NIVLTQSPVSLAVSLGQRATISCRASKSVSTSGYSYMHWYQQKPGQPPRLLLYLGSNLESGVPARFSGSGSGTDFTLNIHPVEEEDAATYYCQHIRELTRSFGGGTKLEIK
notes: source: also used as hybridoma supernatant
- Kd [1]: 49.8 nM
- koff [1]: 0.000848 s⁻¹
- kon [1]: 18800 M⁻¹ s⁻¹
- binding result [2]: no binding

B2: Fab fragment of the C2 antibody (Fab, V domains shown)
VH: B1 VH
VL: B1 VL
notes: source: papain digestion of purified IgG; Fc removed on protein G, gel filtration
- Kd [1]: 301 nM
- koff [1]: 0.00463 s⁻¹
- kon [1]: 12800 M⁻¹ s⁻¹

B3: MAb AP33 (broadly neutralizing mouse monoclonal antibody) (antibody, V domains shown)
VH: EVQLQESGPSLVKPSQTLSLTCSVTGDSITSGYWNWIRKFPGNKLEYMGYISYSGSTYYNLSLRSRISITRDTSKNQYYLQLNSVTTEDTATYYCALITTTTYAMDYWGQGTSVTVSS
VL: NIVLTQSPVSLAVSLGQRATISCRASESVDGYGNSFLHWFQQKPGQPPKLLIYLASNLNSGVPARFSGSGSRTDFTLTIDPVEADDAATYYCQQNNVDPWTFGGGTKLEIK
- Kd [1]: 0.142 nM
- koff [1]: 6.4e-05 s⁻¹
- kon [1]: 649000 M⁻¹ s⁻¹
- binding result [3]: binds
- binding result [4]: binds
- binding result [5]: binds

B4: Fab fragment of AP33 (Fab, V domains shown)
VH: B3 VH
VL: B3 VL
notes: as for B2
- Kd [1]: 0.72 nM
- koff [1]: 0.000147 s⁻¹
- kon [1]: 230000 M⁻¹ s⁻¹
